Test results from article PMC10743472.

Biological target: CLPP, ATP-dependent Clp protease proteolytic subunit, mitochondrial (mouse (endogenous in mouse tissues)) (UniProt O88696)
Assay: native gel or EMSA; complexome profiling: mitochondria of WT and CLPP-null mouse testis, brain and heart (sucrose gradients), solubilised with digitonin, blue native electrophoresis on a 3 to 18% gradient gel, 48 slices, label-free mass spectrometry; co-migration read from the profiles

Chain of CLPP, ATP-dependent Clp protease proteolytic subunit, mitochondrial, O88696 53-272 (natural protein; other documents disagree on this pair) (O88696 53-272): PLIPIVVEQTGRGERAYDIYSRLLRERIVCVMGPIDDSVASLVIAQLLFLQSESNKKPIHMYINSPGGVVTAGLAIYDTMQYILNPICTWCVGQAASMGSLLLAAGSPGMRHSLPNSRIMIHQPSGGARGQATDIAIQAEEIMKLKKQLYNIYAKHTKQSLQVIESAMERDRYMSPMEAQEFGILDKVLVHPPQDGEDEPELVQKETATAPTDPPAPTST

stoichiometry N: 7
Substance: CLPP, ATP-dependent Clp protease proteolytic subunit, mitochondrial, O88696 53-272 (natural protein; other documents disagree on this pair)
